Assay: label from the status in PepcDB records

| Sequence | protein production |
| --- | --- |
| MFNFAVSRESLLSGFQWFFFIFCNTVVVPPTLLSAFQLPQSSLLTLTQYAFLATALACFAQAFCGHRRAIMEGPGGLWWGTILTITLGEASRGTPINDIATSLAVGIALSGVLTMLIGFSGLGHRLARLFTPSVMVLFMLMLGAQLTTIFFKGMLGLPFGIADPNFKIQLPPFALSVAVMCLVLAMIIFLPQRFARYGLLVGTITGWLLWYFCFPSSHSLSGELHWQWFPLGSGGALSPGIILTAVITGLVNISNTYGAIRGTDVFYPQQGAGNTRYRRSFVATGFMTLITVPLAVIPFSPFVSSIGLLTQTGDYTRRSFIYGSVICLLVALVPALTRLFCSIPLPVSSAVMLVSYLPLLFSALVFSQQITFTARNIYRLALPLFVGIFLMALPPVYLQDLPLTLRPLLSNGLLVGILLAVLMDNLIPWERIE | failed |
| MNRARIIVAGIGPGGASDITPAVLSAIGRSDVVVGYKYYFRFIEPYLRPDTHCVDTGMKKERQRAEEAFGYALSGKTVCVISSGDAGIYGMAPLIYEMKRAKGVEMDIEVLPGISAFQKAASLLGAPIGHDLCLISLSDLMTPWPIIEKRIVAAASADFVTAIYNPKSEGRYWQLYRFVEIFMQYRSADTPVGLVRQAGREEEQVTVTTLGEFDPEVVDMFTVVLVGNSQSYCYEGHFITPRGYYPEEEIEAKGIGQEIMIKSFRTIEKELHRQDWPLDHKWALLHAIHTTADFDMENILYTDAGAVASLYEMIEAGRLRTIVTDVTMVTSGIRKGALERLGVEAKCYLHDPRVAELAARHGITRTQAGIRLAVEEHPDALFAFGNAPTALQELADLIRRGKASPAGIIAAPVGFVHVQESKHAVKPFRSIPKIIVEGRKGGSNLAATLVNAILCYNDAEQLRPGRDV | failed |
| MLKKLAGALRTLMSVPADNPRLLEAQYVALSRQLPLMYFVLLVNTWALAFTHRETAPVWLTLLVPVLLTVICGIRARKWLLTVNRPPPAAATILATLRGTNSLAGVIAAGFAAWSLSLYPYGGPYAQAHVAFFMGITVIVCIFCMMHLRPAALTTAVVVNTAFVIFFASTHNLIFIATAVNIVLVSIGMLIILHHQYRDFTSLVDVQVRTEQLSNENLLLANKDSLTGLPNRRQFFQTLDAAMSEALALRSKLAVGVLDLDGFKPVNDLYGHRTGDRLLMLVAERLNSVASNTVHVSRLGGDEFALVIKGDISNEALLALGKHLCDLMHESFELSDMPIQIGATLGMATFPASADNATQLFEFADYALYQGKNHNPGTTCLFSASHREQLHTDGVTEQALRRANLETEFHVMFQPIIESCTCETVAFEALARWNSPELGAVSPAHFIPIAERIGMINKLTAPLLTHALQMALSWPAPIRLSFNLSAHDCATWESVSTIVEIIENSGFDASRLDLEITETAVMQDIAQVQQAIAQFRQLGCGISLDDFGTGFSSLSQLHALALTKLKIDRSFVTGVHDNPASYKIVKSLVALSLDMSLGCVIEGVETQDELNALTSLGCTMVQGYFYSPPISFAETLAWLETPDHERAFGYAAACRI | failed |
| MFEKQFNHRTLETSLGPVEIEGPVTSQILATYKLDPGLTAFRQPAEQHEALVEIAALEEGRIIIARQGNDIIGYVTFLYPDPYETWSEGNNPYILELGAIEVAARFRGQQIGKKLLEVSMLDPAMEHYLILTTEYYWHWDLKGSGLSVWDYRKIMEKMMNHGGLVFFPTDDPEIASHPANCLMARIGKHVAPEVVAHFDALRLRRRFMYD | not failed |
| MASDSGNQGTLCTLEFAVQMTCQSCVDAVRKSLQGVAGVQDVEVHLEDQMVLVHTTLPSQEVQALLEGTGRQAVLKGMGSGQLQN | not failed |
| MALRKIAGLYRIEKFIRERPVEKIRQWRQRYSRPIVNDLFAWPEEQEPCCPPDGPLNKAINYILNRRDELSCFLSDGAVPLDNNICERAIRPVVMGRKAWLFAGSLMAGNRAAQIMSLLETAKRNGLEPHAWLTDVLTRLPEWPEDRLEELLPLEGFTFSG | failed |
| MKEIVERVKTKTKIPVYERSVENVLSAVLASDDIWRIVDLSEEPLPLVVAILESLNELGYVTFEDGVKLTEKGEELVAEYGIGKRYDFTCPHCQGKTVDLQAFADLLEQFREIVKDRPEPLHEFDQAYVTPETTVARVILMHTRGDLENKDIFVLGDDDLTSIALMLSGLPKRIAVLDIDERLTKFIEKAANEIGYEDIEIFTFDLRKPLPDYALHKFDTFITDPPETLEAIRAFVGRGIATLKGPRCAGYFGITRRESSLDKWREIQKLLLNEFNVVITDIIRNFNEYVNWGYAEETRAWKLIPIKKLPEYNWYKSYMFRIETLEGSRGYEDEIPEEDIYNDEESSTT | not failed |
| MFIREEEQMKRMIITIGRQSGSSGRKVGELLAERLSLPLYGKAELQKIAEGTDDYEEVQAFYEEEPVNSLLYAIAMSQFEQEVGRIPFQRIRELASKESCIIIGRCAGHIFREDPEAVRVFIHADPKIRVQRIMEREGLSETKAKKFLEDTDSRRASFHKYYTKQEWGLAQDYELCLDSGVLGIEGTVEVLTEYLRFRGFLGNE | failed |
| MTVNVENVEPELNIEIGPNWFASVMGTGIIANAAVGLPMVGQYLGQAGLVIWVIASLMLIVMLLLKAVQTITNPHIIKRQFNDPVMAQFFGAPPMALLTIAGGTLLFGHHFFAQDTLMVIAWSLWITGTIVGMMTAVIIPYRLFTHHEVRGDAAFGGWLMPVVPPMVSAAIGAMFIPHVQDTLLQQTLLYACYAMFGTSLIAAMIILTLIWGRLVHSGTSGGARVPTLWLVLGPLGQSITAAGALGAVALAVVEQPIAGSLNTMAILYGVPVWGFAFYWSILASFLTLRALRRKMPFALTWWAFTFPVGTCVTGTTQLALHTGLPAFEWAAVILFAGLLCAWVIAALGTIKGIKTGHIMKNPVSSPVIIAKKGPR | failed |
| MAEQDLTMIVGTYTSGDSKGLYSFRFNEENGTATALSEAEVENPSYLVPSADGKFIYAVSEFSNEQAAANAFAFNKEEGTFRLLNTQKTGGEDPCYIITNGSNVVTANYSGGSISVFPIDKDGSLLPASEVVKFKGSGADKERQEKPHLHCVRITPDGKYLFADDLGTDQIHKFIVNPNAKADNEDVFLKEGSPASYKVEAGSGPRHLTFAPNGSYAYLINELSGTVIAFEYNDGELKEIQTIAADTVGAKGSGDIHISPDGKFLYASNRLKADGLAIFSIHPENGMLTKVGYQLTGIHPRNFIITPNGKYLLVACRDSNVIQVYERDTDTGLLTDIRKDIKVDKPVCIKFVPLEHHHHHH | not failed |
| PFYYRLHFCDTMELFIETLTGTCFELRVSPFETVISVKAKIRRLEGIPICRQHLIWNNMELENDYCLNDYNISEGCTLKLVLAMRGGPINTRRVPTDDPLR | failed |
| MGDALSLLQQADRLHRQLLRTGPAQAPCWEPPVDMIETESAVLIYVALPGVAAGDVAVRFDPDGISISGVRPLPALRNARIHGLEIPYGRFQRRIRLPLHALEPEAPTLADGCLTLTLKKLREAPLEHHHHHH | not failed |
| SLRSMVSDSVDEIVDGVSKTTAEVINGRKSIAQYATSLIENNPEPDNVRTIISQPLIKNTFLLVGFGLEKDGSNINNDPSWNPGPTWDPRVRPWYKDAKNAGKLVITAPYADSASGEILVSVATPVKDSATGQFLGSIFYDVSLAELAELVNEVKLFDAGYVFIVSEDGTTIAHPKKEFNGKPMSEFLGESKINVDTHQVIINGKPYAVSFSDVEGEDWYVGVVIDEEIAYAALDELRRS | not failed |
| MGFTELNSVEHYIIHQISGVNLNDAQCKNQVSEPQATYALQWQFKSSEQLGRDVNEVLVESELVKALIRLNPEIEANPHLADEVIHKLRAILISVNQVGLVKANEEFFAWMTGEKTMPFGENNRHVPVKLIDLEDLTRNGYVVTNQFRIHHRETKIPDVVLMINGIPVVVGEAKTPIRPSVSWLDGAHEVHNIYENAVPQLFVPNILSFATEGKELFYGAIRCPLEFWAPWRTEEDDNSKGIGQVSKALGLTEIGKELIDLLSPVRLLDIMRNFSLFTTNKKKQRIKVIPRFQQYEGANKIVERVIEGKIKKGLIWHFQGSGKSLLMVFAAQKLRRTAQLKSPTVIVLVDRTDLDTQISGTFNAADVANVESTDSIKELQRMLERDTRKIIISMIHKFRDAKPNMNTRENIIVLVDEAHRTQEGDLGRQMRAALPNAFLFGLTGTPVNKADKNTFWAFGAEEDKGGYMSRYTFHDSIRDEATLPLHFEPRLVDVHVDKEALDKAFKDFKESAALSDEEADALNQKSAKMSAFLKSPERVEKIVEDIAIHFMDKVEPHGFKAMVVTPDREACVQYKEELDKHFPESASKVVISTSANDDFEFKQKWGVDKSQQEKLVDEFNDEKSDLKFLVVTAKLLTGFDAPICQTMYLDKSIKDHTLLQAICRTNRLYPNKTFGCIVDYFGVFDDAAKALEFDEESVQQVISNLSELRSKLPQAMQDTLAHFIGVDRSLEGFEGLEAAQNAIGDNDKKDAFALDFKYLAKLWESLSPDSVLDEYNEDYKWLAQVYESVKPASDNIGKLLWLALGAQTTQLIHDNVHVGDVHNLEEFVLDADVIENIFNNPDPRKIKQLEKELAKRFKDRGDLPVFKSLSERLEELRDKAEKGLIASIDFVKELCKIAKETVQAEKDLDDELQEKTPQAALTDLFLELKDDQTPAVVERIVTDIDAIVRIVRFPGWQTTTGGEREVQKSLRKALLKYKLHTDQTLFDRAYGYIKEYY | failed |
| MCSLEKRDRLFILKLTGDGEHRLNPTLLDSLRSTINQIRSDPSFSQSVLITTSDGKFFSNGYDLALAESNPSLSVVMDAKLRSLVADLISLPMPTIAAVTGHASAAGCILAMSHDYVLMRRDRGFLYMSELDIELIVPAWFMAVIRGKIGSPAARRDVMLTAAKVTADVGVKMGIVDSAYGSAAETVEAAIKLGEEIVQRGGDGHVYGKMRESLLREVLIHTIGEYESGSSVVRSTGSKL | failed |
| MTENTKISLIVQEADYNDVGRGYAKINNDVMAKLGVESGDFIKITGKRMGAAKVMRSSVSGSGGIAIDGDIRRSAGAGIGDTVTVEKVVPKTAAKITLQPISQSIRLDSRALEQTIQSKFAGRPITKGQIMTFGFQTKSEDPFFSGWGGFSNYNTEYVDFAVSDVSPGDVAIIGSETTVNYKDSVYKGEDAPKGKSAGNIHYEDIGGLGRELSLVREMIEYPLRHPEVFEKLGIEPPKGVLLYGPPGTGKTLIARAVANEAGAYFDTISGPEIISKYYGDSEEKLREIFEKAEENAPSIIFIDEIDSIAPKREESKGEVERRVVAQLLSLMDGLKSRGKVIVIAATNLPDSIDPALRRGGRFDREIEIGVPDKDGRREILQIHARNVPLSENVKLEKYANTTHGFVGADLALMVKEAAMHALRRAFPGMNPDEEISAEKLENLKVTAEDFESALKMVQPSAMREVLVEVPDIHWADVGGLDSVKEELQQAVEWPLKYREVYKQFATKSPKGFLMFGPPGTGKTLLAKAVANESECNFISVKGPELMSKWVGESEKGIREIFRKARLASPSIIFFDEIDSIVPRRGSYEGSSHVTESVVSQFLTELDGLEELKNVVVIGATNRPDMIDPALLRPGRLEQHIFVPPPDREGRKQILDVYIKDISSMLAEDVNLDELVDKTEGFVGADIEALVREAKMVAIREFVKVMAGHDAAEITLAVSSVKVFGRHFDAALKRVRPSLDKEGRRSAERGSWQYRFNEEERKTLEKGISVVETAEYKDAGSTPELRELDELLMAHQKDFSRIKEIIKTADA | failed |
| MKLWENGTFYQMTAEGEQVSAVLTKNGQIHAVGEVADLKKQYATEIDETIDLEGKVVFPGFVDAHIHLLWYGQALERLNLNQTTTKKEALALEHHHHHH | not failed |
| MGIIAWIVFGFVIGLIARAVVPGKQSLGFVMTTLLGIAGSLIGGLVASAFAGTSGTTFQTAGFIGSLVGAIVLLVIAGMVTTPRRRTV | failed |

From a protein production outcome set (Wang et al. 2014)
